Measurements: paper PMC4786922, “Protein Delivery of an Artificial Transcription Factor Restores Widespread Ube3a Expression in an Angelman Syndrome Mouse Brain”

Target: TAT-S1 (MBP-TAT-mCherry-HA-NLS-S1-KRAB) (artificial (designed))
Assay: EMSA; EMSA: ZBA buffer (composition not given), 0.05% NP-40, 0.1 mg/ml BSA, 10% glycerol, 35-75 pM target, 1.5 h at room temperature; pH not given
Settings: protein: recombinant, tags: N-terminal MBP, TAT(48-57), SV40 NLS, C-terminal KRAB, label: 5'-biotin on strand 1, blunt

B1: S1 target site EMSA probe (dsDNA)
DNA 1: CCTCTTCGCTATTACGCCAGCCATGCGTAGGGAGCCGCGGAACGTTCGATCGTACTCGAGTCAGGGTG
DNA 2: CACCCTGACTCGAGTACGATCGAACGTTCCGCGGCTCCCTACGCATGGCTGGCGTAATAGCGAAGAGG
Work on B1 yielded a Kd of 8 ± 1.5 nM.
